Key:
[1] = target: T1, huCDH19(44-772), Flag-tagged, on 293T cells (human, UniProt Q9H159 44-772); assay: FACS, transfected 293T
T1 construct: Expressed with native leader (1-43) followed by a Flag tag; leader left out; also called Hu EC1-5
Text: (§1) The experiment included assaying the anti-CDH19 antibodies against mouse Cadherin19 to determine suitability for binning on these human/mouse chimeras.

[2] = target: T2, huCDH19(44-141)::muCDH19(140-770), Flag-tagged, on 293T cells (human/mouse chimera); assay: FACS, transfected 293T
T2 construct: also called Hu EC1
Text: as §1

[3] = target: T3, huCDH19(44-249)::muCDH19(248-770), Flag-tagged, on 293T cells (human/mouse chimera); assay: FACS, transfected 293T
T3 construct: also called Hu EC1-2; C137896
Text: as §1

[4] = target: T4, muCDH19(44-139)::huCDH19(142-249)::muCDH19(248-770), Flag-tagged, on 293T cells (human/mouse chimera); assay: FACS, transfected 293T
T4 construct: also called Hu EC2; C137913
T4 chain: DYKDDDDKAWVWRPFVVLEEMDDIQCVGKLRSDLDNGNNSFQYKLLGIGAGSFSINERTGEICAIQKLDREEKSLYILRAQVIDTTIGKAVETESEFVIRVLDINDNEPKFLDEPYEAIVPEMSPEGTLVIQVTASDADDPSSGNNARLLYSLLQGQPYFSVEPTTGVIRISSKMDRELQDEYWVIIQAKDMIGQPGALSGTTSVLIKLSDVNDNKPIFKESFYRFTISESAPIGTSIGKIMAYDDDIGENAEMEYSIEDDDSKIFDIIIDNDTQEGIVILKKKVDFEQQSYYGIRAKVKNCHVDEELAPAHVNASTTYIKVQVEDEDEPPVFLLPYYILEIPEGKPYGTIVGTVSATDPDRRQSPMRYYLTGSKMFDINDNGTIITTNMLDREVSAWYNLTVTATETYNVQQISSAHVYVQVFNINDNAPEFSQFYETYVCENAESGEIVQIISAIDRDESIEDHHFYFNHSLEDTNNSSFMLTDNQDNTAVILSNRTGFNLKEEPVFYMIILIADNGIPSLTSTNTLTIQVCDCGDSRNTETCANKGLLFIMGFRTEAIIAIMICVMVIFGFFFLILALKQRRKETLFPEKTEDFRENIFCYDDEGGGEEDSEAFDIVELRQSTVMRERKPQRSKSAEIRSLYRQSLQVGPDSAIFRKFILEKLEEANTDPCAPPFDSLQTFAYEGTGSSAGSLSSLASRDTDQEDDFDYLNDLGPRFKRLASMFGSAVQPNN
Text: as §1

[5] = target: T5, muCDH19(44-139)::huCDH19(142-364)::muCDH19(363-770), Flag-tagged, on 293T cells (human/mouse chimera); assay: FACS, transfected 293T
T5 construct: also called Hu EC2-3; C137847
Text: as §1

[6] = target: T6, muCDH19(44-247)::huCDH19(250-364)::muCDH19(363-770), Flag-tagged, on 293T cells (human/mouse chimera); assay: FACS, transfected 293T
T6 construct: also called Hu EC3; C137911
Text: as §1

[7] = target: T7, muCDH19(44-362)::huCDH19(365-772), Flag-tagged, on 293T cells (human/mouse chimera); assay: FACS, transfected 293T
T7 construct: also called Hu EC4-5; C137917
T7 chain: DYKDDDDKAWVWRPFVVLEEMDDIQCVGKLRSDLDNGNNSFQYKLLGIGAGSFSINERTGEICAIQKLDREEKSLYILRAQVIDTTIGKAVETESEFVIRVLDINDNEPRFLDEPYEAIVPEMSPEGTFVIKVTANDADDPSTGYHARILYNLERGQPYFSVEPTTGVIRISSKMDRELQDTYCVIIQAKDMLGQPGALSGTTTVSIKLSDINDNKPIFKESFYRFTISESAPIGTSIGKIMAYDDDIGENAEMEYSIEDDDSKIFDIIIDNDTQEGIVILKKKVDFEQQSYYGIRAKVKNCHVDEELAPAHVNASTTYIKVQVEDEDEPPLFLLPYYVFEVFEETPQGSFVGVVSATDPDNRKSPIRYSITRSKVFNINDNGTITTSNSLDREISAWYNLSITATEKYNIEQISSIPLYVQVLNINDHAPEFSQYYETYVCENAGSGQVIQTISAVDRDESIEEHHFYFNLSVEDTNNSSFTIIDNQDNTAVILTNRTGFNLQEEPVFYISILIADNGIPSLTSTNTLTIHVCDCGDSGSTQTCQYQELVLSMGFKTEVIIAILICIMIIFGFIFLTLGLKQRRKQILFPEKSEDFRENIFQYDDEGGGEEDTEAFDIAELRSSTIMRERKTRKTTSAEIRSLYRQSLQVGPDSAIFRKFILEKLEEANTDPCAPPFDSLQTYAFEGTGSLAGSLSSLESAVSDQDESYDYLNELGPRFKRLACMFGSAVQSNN
Text: as §1

[8] = target: T8, muCDH19(44-461)::huCDH19(464-772), Flag-tagged, on 293T cells (human/mouse chimera); assay: FACS, transfected 293T
T8 construct: also called Hu EC5; C137915
T8 chain: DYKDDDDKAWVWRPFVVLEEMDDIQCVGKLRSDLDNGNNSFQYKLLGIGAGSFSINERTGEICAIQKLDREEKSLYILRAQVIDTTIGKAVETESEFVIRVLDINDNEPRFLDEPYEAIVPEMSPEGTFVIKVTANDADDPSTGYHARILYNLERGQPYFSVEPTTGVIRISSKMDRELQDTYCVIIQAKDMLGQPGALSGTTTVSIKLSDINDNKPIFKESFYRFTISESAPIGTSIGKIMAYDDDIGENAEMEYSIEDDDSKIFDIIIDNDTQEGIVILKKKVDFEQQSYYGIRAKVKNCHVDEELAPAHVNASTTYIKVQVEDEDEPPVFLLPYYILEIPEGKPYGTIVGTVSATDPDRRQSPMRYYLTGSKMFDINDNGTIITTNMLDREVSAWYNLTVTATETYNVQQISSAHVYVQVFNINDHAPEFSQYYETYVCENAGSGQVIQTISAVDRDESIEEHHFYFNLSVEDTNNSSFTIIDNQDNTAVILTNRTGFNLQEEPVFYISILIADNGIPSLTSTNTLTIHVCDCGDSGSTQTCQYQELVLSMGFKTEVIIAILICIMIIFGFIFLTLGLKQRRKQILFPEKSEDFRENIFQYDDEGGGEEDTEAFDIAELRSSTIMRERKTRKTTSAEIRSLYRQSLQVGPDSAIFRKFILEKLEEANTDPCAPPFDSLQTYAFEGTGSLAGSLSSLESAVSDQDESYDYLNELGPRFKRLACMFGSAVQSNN
Text: as §1

[9] = target: T9, muCDH19(44-770), Flag-tagged, on 293T cells (mouse); assay: FACS, transfected 293T
T9 construct: also called Mu EC1-5
T9 chain: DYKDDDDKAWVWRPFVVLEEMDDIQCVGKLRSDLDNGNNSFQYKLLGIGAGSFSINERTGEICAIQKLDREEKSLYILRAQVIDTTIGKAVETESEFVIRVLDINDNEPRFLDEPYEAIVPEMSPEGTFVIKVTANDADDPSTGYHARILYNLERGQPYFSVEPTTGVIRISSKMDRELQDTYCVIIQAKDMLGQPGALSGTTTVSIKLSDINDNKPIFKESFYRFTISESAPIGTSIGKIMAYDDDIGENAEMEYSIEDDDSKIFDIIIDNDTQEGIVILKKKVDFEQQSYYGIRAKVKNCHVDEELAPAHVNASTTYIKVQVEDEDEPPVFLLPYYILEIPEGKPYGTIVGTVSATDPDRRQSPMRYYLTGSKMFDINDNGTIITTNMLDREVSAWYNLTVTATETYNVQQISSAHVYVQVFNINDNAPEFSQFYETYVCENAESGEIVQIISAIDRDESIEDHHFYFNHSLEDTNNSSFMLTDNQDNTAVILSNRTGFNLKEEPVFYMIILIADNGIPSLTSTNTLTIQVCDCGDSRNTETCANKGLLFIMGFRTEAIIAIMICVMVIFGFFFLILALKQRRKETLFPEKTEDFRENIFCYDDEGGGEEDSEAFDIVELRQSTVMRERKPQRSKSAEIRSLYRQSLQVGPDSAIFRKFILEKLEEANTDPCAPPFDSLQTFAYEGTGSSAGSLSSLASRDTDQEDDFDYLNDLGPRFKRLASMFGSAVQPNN
Text: as §1

[10] = target: T10, Cyno Cadherin-19 (cynomolgus monkey (Macaca fascicularis), UniProt Q9H159 44-772 (human entry)); assay: FACS, recombinant cyno CDH19
T10 construct: also called cyno CDH19; cynomologous CDH-19
T10 chain: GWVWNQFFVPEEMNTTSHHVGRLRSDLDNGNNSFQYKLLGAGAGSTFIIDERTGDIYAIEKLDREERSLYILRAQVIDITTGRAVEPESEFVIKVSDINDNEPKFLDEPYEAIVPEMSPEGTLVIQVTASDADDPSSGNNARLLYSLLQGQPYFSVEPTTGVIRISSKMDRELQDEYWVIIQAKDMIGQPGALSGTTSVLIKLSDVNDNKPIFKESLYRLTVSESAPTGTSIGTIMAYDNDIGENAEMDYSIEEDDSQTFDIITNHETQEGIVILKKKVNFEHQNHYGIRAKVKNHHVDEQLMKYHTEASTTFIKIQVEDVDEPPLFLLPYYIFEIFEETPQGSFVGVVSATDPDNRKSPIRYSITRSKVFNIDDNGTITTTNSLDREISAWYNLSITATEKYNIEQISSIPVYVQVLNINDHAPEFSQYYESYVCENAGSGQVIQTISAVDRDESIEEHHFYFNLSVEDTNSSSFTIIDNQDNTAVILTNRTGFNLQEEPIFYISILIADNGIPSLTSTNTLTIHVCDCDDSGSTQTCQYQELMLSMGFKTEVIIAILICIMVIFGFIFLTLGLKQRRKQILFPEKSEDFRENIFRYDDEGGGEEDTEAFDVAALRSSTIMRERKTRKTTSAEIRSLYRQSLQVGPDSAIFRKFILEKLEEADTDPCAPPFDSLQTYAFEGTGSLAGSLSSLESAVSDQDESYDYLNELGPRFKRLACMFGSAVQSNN

[11] = target: T11, Human Cadherin-19 (human, UniProt Q9H159 44-772); assay: FACS, endogenous CDH19 on tumor cells and 293/CDH-19 transfectants
T11 construct: Residues 1-43 are named as the native leader in the construct designations and are left out; also called human CDH19; huCDH19
Experimental: FACS binding assays were performed to evaluate the binding of the anti-Cadherin-19 receptor specific antibodies to endogenous Cadherin-19 receptor expressed on the CHL-1 tumor cell lines.
FACs assays were performed by incubating hybridoma supernatants with 10,000 to 25,000 cells in PBS/2% Fetal bovine serum/2 mM Calcium Chloride at 4° C. for one hour followed by two washes with PBS/2% Fetal bovine serum/2 mM Calcium Chloride. Cells were then treated with florochrome-labeled secondary antibodies at 4° C. followed by one wash. The cells were resuspended in 50 μl of PBS/2% FBS and antibody binding was analyzed using a FACSCalibur™ instrument.

Measured: binding result

B1: hu anti-<huCDH19> 2G6 (1-477)(R17G,D61E,D72E,K94N) VH::huIgG1z / 2G6 (1-234)(C42S,D110E) VL::huLLC-C1 (Ab ID 14039) (antibody, V domains shown)
VH: QVQLVESGGGVVQPGGSLRLSCAASGFTFSSYGMHWVRQAPGKGLEWVAFIWYEGSNKYYAESVKDRFTISRDNSKNTLYLQMNSLRAEDTAVYYCARRAGIIGTIGYYYGMDVWGQGTTVTVSS
VL: SYELTQPPSVSVSPGQTASITCSGDRLGEKYTSWYQQRPGQSPLLVIYQDTKRPSGIPERFSGSNSGNTATLTISGTQAMDEADYYCQAWESSTVVFGGGTKLTVLG
notes: Engineered variant of 2G6
binds: [1] | [2] | [3] | [4] | [5] | [6] | [7] | [8] | [9]

B2: hu anti-<huCDH19> 22G10.1 VH::huIgG1z / 22G10.1 VL::huKLC (Ab ID 13877) (antibody, V domains shown)
VH: EVQLLESGGGLVQPGGSLRLSCAASGFTFSSYAMNWVRQAPGKGLEWVSTISGGGANTYYADSVKGRFTISSDNSKSTLYLQMNSLRAADTAVYHCAKGGMGGYYYGMDVWGQGTTVTVSS
VL: EIVMTQSPVTLSLSLGERATLSCRASQSISSNLAWFQQKPGQAPRLLIYGAFTRATGIPARVSGSGSGTEFTLTISSLQSEDFAVYYCQQYNYWPLTFGGGTKVEIKR
binds: [10] | [11]

From patent US20140322218A1 (Amgen, published 2014)
